Experiment: soluble on expression in E. coli; label from the status in PepcDB or PDB records
For “MSEDADLKIFMDFLVEKTKDAFQPMIAVQVFREYLNEKSHLHDYHYKRFCCDLAPNMNEWNNYSIEARIRLMYALGGKVESDFLERIETHGTVELNKKRKITKYTSNDGILSLQDNRVHFTRFMDFLIQKTKYAVEPMNFNQVLEEFCRLEPDCRHYGVYYVRFHHKLAPNMDALNNYNIYDRIRLMFVLNGKVSGDFFKTIKTHGTVELDRKKKITKYVSNDGKLKLGGNIISDTRLMDFLIQKTRHSVEPMQATNLIFKEFSERPSRILDKMYQLRFYQKLAPNMNEWNRYSIEQRIRLMFVLKGKVADDFLKTIPILSMAKRIMICRIETHGTVELDEKRRIRKYTSNDGKLSLKKPLTDDTSCPTNIRFMDFLIQNTKDGAESIRLIYNEFALLEGNVLSASTYSSRFCKKLAPKMSQWSNYRIEDRIRMMFALKGKVESDFLAQMIQSGAVQLDENYRIVRYTSNNGKVELSEKRSGVKRRSSTKSSKTLGKRRQVIEKELSDLDEPEFVGIMHGYPKQEPVYEEIINQDMRYNNEDPHIPPEIEQFPIQAVHLEEPKFDPISSMNIGRGTLAQRFGTTSSESDGISVHNFLISLELILTSLESDTLIDLMREIKELRNRTNDEILPPDLVIPALQTCFMGITRKFRPEVSAPSKSAGECLRILKYSLLWLQSPLLYDLQKRVQEEIENCGADGKVIPIADIQQGIRNILFAVSI”, the “soluble on expression in E. coli” value was “not soluble”. For “MSEDDPRPLHIRRQGLDPADELLAAGALTRVTIGSGADAETHWMATAHAVVRQVMGDHQQFSTRRRWDPRDEIGGKGIFRPRELVGNLMDYDPPEHTRLRRKLTPGFTLRKMQRMAPYIEQIVNDRLDEMERAGSPADLIAFVADKVPGAVLCELVGVPRDDRDMFMKLCHGHLDASLSQKRRAALGDKFSRYLLAMIARERKEPGEGMIGAVVAEYGDDATDEELRGFCVQVMLAGDDNISGMIGLGVLAMLRHPEQIDAFRGDEQSAQRAVDELIRYLTVPYSPTPRIAREDLTLAGQEIKKGDSVICSLPAANRDPALAPDVDRLDVTREPIPHVAFGHGVHHCLGAALARLELRTVFTELWRRFPALRLADPAQDTEFRLTTPAYGLTELMVAW”, the “soluble on expression in E. coli” value was “soluble”. For “MSEDIFDAIIVGAGLAGSVAALVLAREGAQVLVIERGNSAGAKNVTGGRLYAHSLERIIPGFADQAPIERMITHEKLAFMTDNGAMTIDYCNGEDASASQVSYSVLRSKFDAWLMEQAEEAGAQLITGIRVDNVVQRDGKVVGVEADGDILEAKVVILADGVNSLLAEKLGMTKRVEASHVAVGVKELIELPKLVIEDRFQLQGNEGAACLFAGAPTDGLMGGGFLYTNETTLSLGLVCGLHHLKDAKKSVPQMLEDFKQHPAVAPLIAGGKLVEYAAHVVPEAGMNMQPELVGDGVLIAGDAAGMCMNLGFTIRGMDLAISAGEAAAKTVLSAMKRDDFSKQSLGEYRQHLDEGPMRDMRMYQKLPAFLDNPRMFTAYPEMAVNIARDLFTVDGSAPVPMRKKILRHAKKVGFINLMKDGLKGVTVL”, the “soluble on expression in E. coli” value was “not soluble”. With “MSEDVSKNLSETLFVKHKQAKETSALTQYMPTSKKILDDREQQEDRAWYRHLRRLQWAWQGLSPIEMEGVLSRIASSTHSRTHDDWLDTVMGYHSGNWTFEWIKLGMEHQRRANDLKGEDAADELFTASLCFSIAGYPHLKNDNLALQAQVLANKAYSEGAEKTQYTIKQIEVPYQKRKIIANLHLPRTDKQLPVVMVSAGLDSLQTDMWRLFRNHFAPKDIAMLTVDMPSVGHSSHWPLTEDSSCLHQAVLNELYSIPYVDHHKVGLVGFRFGGNAMVRLSFLEQEKIKACVALGAPVHDLFTSPKKLQKMPKMYLDMLASRLGKSAVDINSMAGQMMAWSLKVQGFLSSRKTKVPILALSLEGDPVSPYSDNQLVALFSHYGQAKKISSKTITKGYEQSLDLAIKWLEDELLR” the “soluble on expression in E. coli” value was “not soluble”. In the case of “MSEKDQSVNNTEEDFNVETEDNQNDTNIENSVSNTDNSEANASDSENNSEESIKDEESESQDTKIKELEKLANDNEEKYLRLYAEFENYKRRIQKENQINATYKAQGVLTDILPSIDNIERALQIEGDDESFKSLQKGVQMVHESLLRALKDNGLEEILAEGKEFDPNLHQAVVQDDNPDFKSGEVTQELQKGYKLKDRVLRPSMVKVNQ”, the “soluble on expression in E. coli” value is reported as “soluble”. For “MSEMPAREQMISAYSELVGLDPVSLGDGVAEVRLPMAAHLRNRGGVMHGGALFSLMDVTMGLACSSSHGFDRQSVTLECKINYIRAVADGEVRCVARVLHAGRRSLVVEAEVRQGDKLVAKGQGTFAQL”, the “soluble on expression in E. coli” value was “soluble”. For “MSETATWQPSASIPNLLKRAAIMAEIRRFFADRGVLEVETPCMSQATVTDIHLFPFETRFVGPGHSQGINLYLMTSPEYHMKRLLAAGCGPVFQLCRSFRNEEMGRHHNPEFTMLEWYRPHYDMYRLMNEVDDLLQQVLDCQPAESLSYQQAFQRHLEIDPLSADKTQLREAAAKLDLSNIADTEEDRDTLLQLLFTMGVEPHIGKEKPTFIYHFPASQASLAQISTEDHRVAERFEVYYKGIELANGFHELTDAREQQQRFEQDNRKRAARGLPQQPIDQNLLDALAAGLPDCSGVALGVDRLVMLALGAESLADVIAFTVDRA”, the “soluble on expression in E. coli” value was “not soluble”. In the case of “MSETELRKRQAQFTRELHGDDIGKKTGLSALMSKNNSAQKEAVQKYLRNWDGRTDKDAEERRLEDYNEATHSYYNVVTDFYEYGWGSSFHFSRFYKGESFAASIARHEHYLAYKAGIQRGDLVLDVGCGVGGPAREIARFTGCNVIGLNNNDYQIAKAKYYAKKYNLSDQMDFVKGDFMKMDFEENTFDKVYAIEATCHAPKLEGVYSEIYKVLKPGGTFAVYEWVMTDKYDENNPEHRKIAYEIELGDGIPKMFHVDVARKALKNCGFEVLVSEDLADNDDEIPWYYPLTGEWKYVQNLANLATFFRTSYLGRQFTTAMVTVMEKLGLAPEGSKEVTAALENAAVGLVAGGKSKLFTPMMLFVARKPENAETPSQTSQEATQ”, the “soluble on expression in E. coli” value is reported as “soluble”. In the case of “MSETFTSVSQEEAGFRERARLSFDLDADICVIGAGLAGLSIALEAARLGASVAVLEGRHIGWNASGNQLGTVMPGFALPLTDLIERIGFEDARELWTLSKEGAEFVRANATEENMPGIAPSDGVLEVSNVDTGDRLISRLQMLHEDFDTEVEGWQVDRVRDVLKTDRYFHGVYYPKAFQVDGRKYVHGLAALARRAGARIFEDTPVVSIDHSGIRKRIVTPSARLRATHIVLAGNIHLGAPLRRLSETLLPVWRYAGITAPLGERVHEIIAFKGSVMDSDGVDHFRIVDGDRLMWESPETTWAARPQRFAGGVRRRIRSIFPQFGNVEIADMFGGATGQTVHGMPQIGQLRKGLWVASGFGRQGMNTSAMAGQMIARSILWGDERWRLFSPFELVWAGGATGRVAGQLVGIWGRASSAAAGTLARYRERARVKDREREARLAEANRAAGTGPRRPPPGVRPRPAPPPKPATEALEPASHDDSVSQLEHHHHHH”, the “soluble on expression in E. coli” value is reported as “not soluble”. In the case of “MSETVYTAKDYKSGQPRWCPGCGDHAFLNSLHKAMAELGVAPHNIAVISGIGCSSRLPYYVNTYGFHTIHGRAAAVATGAKVANPDLTIWQISGDGDGLAIGGNHFIHAVRRNIDLNMILLNNRIYGLTKGQYSPTSDRGFVSKSSPYGTVEDPFHPAELCFGARGRFFARCVAVDGPASVEVLKAAANHKGASVVEVLQNCVIFNDGTHESVATKEGRSKNAIYLEHGKPMLFGENKEFGLMQEGFGLKVVKLGENGVTEKDILIHNAHSMDNTLQLKLALMEGPDFPIALGVIRDVEAPTYNDAVAEQIDEVKAKKKYHNFQELLMTNETWEVK”, the “soluble on expression in E. coli” value is reported as “not soluble”. In the case of “MSFATISVIGLGYIGLPTAAAFASRQKQVIGVDINQHAVDTINRGEIHIVEPDLASVVKTAVEGGFLRASTTPVEADAWLIAVPTPFKGDHEPDMTYVESAARSIAPVLKKGALVILESTSPVGSTEKMAEWLAEMRPDLTFPQQVGEQADVNIAYCPERVLPGQVMVELIKNDRVIGGMTPVCSARASELYKIFLEGECVVTNSRTAEMCKLTENSFRDVNIAFANELSLICADQGINVWELIRLANRHPRVNILQPGPGVGGHCIAVDPWFIVAQNPQQARLIRTAREVNDHKPFWVIDQVKAAVADCLAATDKRASELKIACFGLAFKPNIDDLRESPAMEIAELIAQWHSGETLVVEPNIHQLPKKLTGLCTLAQLDEALATADVLVMLVDHSQFKVINGDNVHQQYVVDAKGVWR”, the “soluble on expression in E. coli” value is reported as “not soluble”. With “MSFDIAKYPTLALVDSTQELRLLPKESLPKLCDELRRYLLDSVSRSSGHFASGLGTVELTVALHYVYNTPFDQLIWDVGHQAYPHKILTGRRDKIGTIRQKGGLHPFPWRGESEYDVLSVGHSSTSISAGIGIAVAAEKEGKNRRTVCVIGDGAITAGMAFEAMNHAGDIRPDMLVVLNDNEMSISENVGALNNHLAQLLSGKLYSSLREGGKKVFSGVPPIKELLKRTEEHIKGMVVPGTLFEELGFNYIGPVDGHDVLGLITTLKNMRDLKGPQFLHIMTKKGRGYEPAEKDPITFHAVPKFDPSSGCLPKSSGGLPSYSKIFGDWLCETAAKDNKLMAITPAMREGSGMVEFSRKFPDRYFDVAIAEQHAVTFAAGLAIGGYKPIVAIYSTFLQRAYDQVLHDVAIQKLPVLFAIDRAGIVGADGQTHQGAFDLSYLRCIPEMVIMTPSDENECRQMLYTGYHYNDGPSAVRYPRGNAVGVELTPLEKLPIGKGIVKRRGEKLAILNFGTLMPEAAKVAESLNATLVDMRFVKPLDETLILEMAASHEALVTVEENAIMGGAGSGVNEVLMAHRKPVPVLNIGLPDFFIPQGTQEEMRAELGLDAAGMEAKIKAWLA” the “soluble on expression in E. coli” value was “not soluble”. In the case of “MSFHVRFTLEAKADIERLYRFLAEHDFDVAERTLETIDSAWSLLEQFPFSCRKIDDANPFLREFIISFGNSGYVVLFEIEDSNTVTVLAVRHQLEDDYY”, the “soluble on expression in E. coli” value is reported as “soluble”. For “MSFQNQFTKTTTDANLMETVHHGSAEYPFRYYYENIALFDFKCIDWHWHSELEFIYIESGNVVFDIGTVHFELNEGNGIMINSKILHRLQSSSDAIIPNFLFQPSFIAPQDSLIYKKYINPVISSSLEYLVFQPDIPWQKKALEIIKTIIAVQETEFNREIIVSMSVQQLWILLLENLTFDQFENMGAVISRTRLQLMMQYVHAHYSENITLEDIARTANISKSTALHLFQNNLKLTPVKYLINYRLTQAALLLINTEEKIATISNNTGFNNVDHFCRTFKKTYKMTPTDYRNQERAPVS”, the “soluble on expression in E. coli” value was “not soluble”. With “MSFRIYNTQKWSAEQMAPYLDKVIKSIAYFHKKFPDDYTPQTILNDILKGDKLLWIIVDEQENFMAHVTTELQKLVTGALRAVIVTLGGKGGAPLTKLIPQIEAYYKEKGAKELIIIGRRGWKKSLKSHGYFVNLLEYRKQL” the “soluble on expression in E. coli” value was “not soluble”. With “MSFSADALEGGLSSLKLAADKYRSILNDEKTGNIRWRYGGPPIFDTVNKLFEEERTHVQWRYDNPPDFNSVNQLFEEGQTKVWPEGSLEETVQNAIKSWEMEFSHKIRLQDFKTINPEKFKLFVNGREGLSAEETLRLGSYNALLKNSLPEEFQYYKPEEESFESSHDAFRSALPRGFAWEILSVYSGPPVIAFKFRHWGYFEGTFKGHAPTGEMVQFLGLGVLKVDESLRAEEIEIYYDPGELFGGLLKGPPISETKTTDSGDNTAEKQSCPFTH” the “soluble on expression in E. coli” value was “soluble”. In the case of “MSFTPANRAYPYTRLRRNRRDDFSRRLVRENVLTVDDLILPVFVLDGVNQRESIPSMPGVERLSIDQLLIEAEEWVALGIPALALFPVTPVEKKSLDAAEAYNPEGIAQRATRALRERFPELGIITDVALDPFTTHGQCGILDDDGYVLNDVSIDVLVRQALSHAEAGAQVVAPSDMMDGRIGAIREALESAGHTNVRVMAYSAKYASAYYGPFRDAVGSASNLGKGNKATYQMDPANSDEALHEVAADLAEGADMVMVKPGMPYLDIVRRVKDEFRAPTFVYQVSGEYAMHMGAIQNGWLAESVILESLTAFKRAGADGILTYFAKQAAEQLRRGR”, the “soluble on expression in E. coli” value is reported as “soluble”. With “MSFTPELNMAVCEFNLDSGCNAKESLIEMANNKISLETFKEHNIKALTMKYVNSESMMWEARKIVRIISRLEADEHQSRVAPKRSRSPGSTSPSASNSSSSSSELSFDMFSSKRTVPMKVTSKPKRVIAQASRTMKPHQQESRQESAEKDRANDEKLKKFIESRKLKEQAKKAANIQKCNEVKEAVMFPAKRMKKRQLEQYAYRFK” the “soluble on expression in E. coli” value was “not soluble”.
